# Article PMC11546298
# Molecular target: eYFP-MotD (P. aeruginosa)
# Assay: FRET or BRET
substance,measurement,value
eCFP-MotY (from UniProt A0A0H2ZD91 1-321) (natural protein),FRET efficiency (E),1.54%
